Substitutions are numbered along the chain they refer to.
T1: his-tagged TSLPR (TSLPR-HIS) (UniProt Q9HC73 23-231, limits assumed)
T1 construct: Soluble protein used in the ForteBio assay; not shown: His tag
T1 sequence (looked up): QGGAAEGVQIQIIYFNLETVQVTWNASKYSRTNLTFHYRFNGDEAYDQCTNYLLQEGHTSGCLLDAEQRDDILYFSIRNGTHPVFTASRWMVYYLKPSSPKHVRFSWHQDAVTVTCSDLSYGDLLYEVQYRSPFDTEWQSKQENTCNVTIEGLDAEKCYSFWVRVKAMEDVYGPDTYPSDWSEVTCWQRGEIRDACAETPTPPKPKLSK

B1: TSLPR antibody clone 1F6 (antibody, V domains shown)
VH: QVQLVQSGAEVRKPGSSVKVSCKASGGTVSSYAISWVRQAPGQGLEWMGGITPIFGTAKYAQKFQGRVTITADKSTSTAYMELSSLRSEDTAVYYCARGGIAAAGTFDYWGQGTLVTVSS
VL: not shown
notes: Captured on an anti-human IgG sensor
B2: TSLPR antibody clone 2H4 (antibody, V domains shown)
VH: B1 VH with R12K, V29F, S30N, A79T, G99P, A102I, A103V, T106P
VL: not shown
notes: as for B1
B3: TSLPR antibody clone 2E4 (antibody, V domains shown)
VH: EVQLLESGGGLVQPGGSLRLSCAASGFTFSSYAMNWVRQAPGKGLEWVSGISGSGGSTYYADSVKGRFTFSRDNSKNTLYLQMISLRAEDTAVYYCAKDQRITMVRGVIGAFDIWGQGTMVTVSS
VL: DIQMTQSPSTLSASVGDRVTITCRASQSISSWLAWYQQKPGKAPKLLIYKASSLESGVPSRFSGSGSGTEFTLTISSLQPDDFATYYCQQYVGLITFGQGTRLEIKR
notes: as for B1
B4: TSLPR antibody clone 3E5 (antibody, V domains shown)
VH: EVQLLESGGGLVQPGGSLRLSCAASGFTFSSNAMSWVRQAPGKGLEWVSAIRGRGGSTYYADSVKGRFTISRDNSKNTLYLQLNSLRAEDTAVYYCAKDRIVVAGPFDHWGQGTLVTVSS
VL: DIQLTQSPSFLSASVGDRVTITCRASQGISSYLAWYQQKPGKAPKLLIYAASTLQSGVPSRFSGSGSGTEFTLTISSLQPEDFATYYCQQLNRYPLTFGGGTKVDIKR
notes: as for B1
B5: TSLPR antibody clone 2F5 (antibody, V domains shown)
VH: EVQLVESGGGLVQSGGSLRFSCAASGFTFSSHPMNWVRQVPGKGLEWVSSISGSGGSTYYADFVKGRFTISRDNSKNTLYLQMNSLRAEDTAVYYCAKGHNSGWKYWGQGTLVTVSS
VL: B4 VL with R93S, L96P, G100Q
notes: as for B1
B6: TSLPR antibody clone 2E6 (antibody, V domains shown)
VH: EVQLLESGGNLVQPGGSLRLSCAASGFTFGSYVMTWGRQAPGKGLEWVSTISASGGSTYYADSVKGRFTISRDNSKNTLYLQMNSLRAEDTAVYYCAKDKWGKGFDIWGQGTMVTVSS
VL: B4 VL with R93S, L96P, D105E
notes: as for B1
B7: TSLPR antibody clone 3D8 (antibody, V domains shown)
VH: QVQLVESGGGVVQPGRSLRLSCAASGFTFSSYVMHWVRQAPGKGLEWVAVIWYAGNKKYYADSVKGRFTISRDNSNNTLYLQMNSLRAEDTAVYYCAREYSSSWHYYGMDVWGQGTTVTVSS
VL: B4 VL with R93S
notes: as for B1
B8: TSLPR antibody clone 2H8 (antibody, V domains shown)
VH: EVQLLESGGGLEQPGGSLRLSCAASGFTFSSHAMNWVRQAPGKGLEWVSAISGSGGSTYYADSVKGRFTISRDNSKNTLCLQMNSLRAEDTAVYYCARGHNSGWPYWGQGTLVTVSS
VL: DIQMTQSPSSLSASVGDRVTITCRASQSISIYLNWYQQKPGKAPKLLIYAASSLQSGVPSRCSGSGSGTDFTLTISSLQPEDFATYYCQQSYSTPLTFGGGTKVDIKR
notes: as for B1
B9: TSLPR antibody clone 2B2 (antibody, V domains shown)
VH: QVQLVESGGGVVQPGRSLRLSCAASGFTFSNYGMHWVRQAPGKGLEWVSFIWYDGSHRYYADSVKGRFTISRDNSKNTLYLQMNSLRAEDTAVYYCAKGRGGLDWYFDLWGRGTLVTVSS
VL: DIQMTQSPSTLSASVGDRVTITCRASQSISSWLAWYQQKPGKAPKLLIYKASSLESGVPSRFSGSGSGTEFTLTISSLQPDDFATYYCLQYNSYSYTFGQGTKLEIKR
notes: as for B1
B10: TSLPR antibody clone 1B9 (antibody, V domains shown)
VH: QVQLQESGPGLVKPSGTLSLTCAVSGGSIRSSNWWSWVRQPPGKGLEWIGEIYHGGTTNNNPSLKSRVTISVDQSKSQFSLKLSSVTAADTAVYYCARHRYSSGLDYWGQGTLVTVSS
VL: DIQMTQTPSTLSASVGDRVTITCRGSHSISNWLGWYRHKPRKAPNLLIYKASSLKSGVPSRFSGSGSGTEFTLTITSLQPDDFATYYCQQYNHYSTFGQGTKVDIKR
notes: as for B1
B11: TSLPR antibody clone 2D11 (antibody, V domains shown)
VH: QVQLQESGPGLVKPSETLSLTCAVSGYSISSGYYWGWIRQPPGKGLEWIGRIYHSGTTSYNPSLKRRVTISVDTSKNQFSLKLSSVTATDTAVYYCARNWGGNWFDPWGQGTLVTVSS
VL: DIQMTQSPSSLSASVGDRVTITCRASQGISNYLAWYQQKPGKVPKLLIYAASTLQSGVPSRFSGSGSGTDFTLTISSLQPEDVATYYCQKYNSARTFGQGTKVDIKR
notes: as for B1
B12: TSLPR antibody clone 1A10 (antibody, V domains shown)
VH: QVQLQESGPGLVKPSETLSLTCNVSGGSISTYYWNWLRQPPGKGLEWIGSIYYSGTTNYNPSLKSRVTISVDTSKHQFSLRLTSVTAADTAVYFCARDQGYYHGSGSYFFDYWGQGTLVTVSS
VL: EIVMTQSPATLSVSPGERATLSCRASQSVSSHLAWYQQKPGQAPRLLIYGASTRATGIPARFSGSGSGTEFTLTISSLQSEDFAIFYCQQYNNWPLTFGGGTKVDIKR
notes: as for B1
B13: TSLPR antibody clone 1G3 (antibody, V domains shown)
VH: QVQLVESGGGVVQPGRSLRLSCAASGFTFSSYGMHWVRQTPGKGLEWVAVMWYDGRNKYYADSVKGRFTISRDNSKNTLYLQMNSLRAEDTAVYYCARDRIMVRGVIIPHVFDIWGQGTMVTVSS
VL: EIVMTQSPATLSVSPGERATLSCRASQSVSSNLGWYQQKPGQAPRLLIYGASTRATGIPARFSGSGSGTEFILTISSLQSEDFAVYYCQEYNNWWTFGQGTKVDIKR
notes: as for B1
B14: TSLPR antibody clone 10C4 (antibody, V domains shown)
VH: QVQLQESGPGLVKPSGTLSLTCAVSGGSINSNNWWSWVRQPPGKGLEWIGDIYHSGSTNYNPSLKSRVTISVDKSKSQFSLKLSSVTAADTAVYYCARRRWLQHFDFWGQGTLVTVSS
VL: DIQMTQSPSTLSASVGDRVTITCRASQSITNWLAWYQQKPGKAPKLLIYKASSLESGVPSRFSGSGSGTEFTLAISSLQPDDFATYYCQQYNIYPLAFGGGTKVEIKR
notes: as for B1
B15: TSLPR antibody clone 1D10 (antibody, V domains shown)
VH: QVQLQESGPGLVKPSETLSLTCTVSGGSISRYYWSWIRQPPGKGLEWIGYIFYNKNTNYNPSLKSRVTISVDTSKNQFSLKLSSVTAADTAVYYCARYIAAIYTDLYYFDYWGQGTLVTVSS
VL: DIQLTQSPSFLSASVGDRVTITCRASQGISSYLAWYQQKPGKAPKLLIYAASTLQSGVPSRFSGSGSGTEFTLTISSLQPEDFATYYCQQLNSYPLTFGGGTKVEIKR
notes: as for B1
B16: TSLPR antibody clone 2F1 (antibody, V domains shown)
VH: B15 VH
VL: B4 VL with Y87H, R93S, G101M, D105E
notes: as for B1
B17: TSLPR antibody clone 2A4 (antibody, V domains shown)
VH: QVQLVQSGAEVKKPGASVKVSCKASGYTFTGYYMHWVRQAPGQGLEWMGRFNLHSGVTNYAQKFQGRVTMTRDTSISTVYMDLSRLRSDDTAVYYCARERQWLVQDYFDYWGQGTLVTVSS
VL: DIQMTQSPSSLSASVGDRVTITCRASQSISNYLNWYQQKPGKAPNLLICAASSLQSGVPSRFSGSGSGTDFTLTISSLQPEDFATYYCQQSYSIPPTFGQGTKVDIKR
notes: as for B1
B18: TSLPR antibody clone 2H1 (antibody, V domains shown)
VH: EVQLLESGGGLVQPGGSLSLSCAASGFTFSRYGMHWVRQAPGKGLEWVSAISASGGSTYYADSVKGRFTISRDNSKNTLYLQMNSLRAEDTAVYYCAKDKWGYAFDIWGQGTTVTVSS
VL: B3 VL with S31N, Q89L, V92N, G93H, L94Y, I95S, R102K, L103V, E104D
notes: as for B1

The binders below were run against T1, his-tagged TSLPR (TSLPR-HIS) (assay: BLI (ForteBio AHQ sensor), antibody captured, TSLPR-HIS in solution).
Method: (§1) TSLPR antibody clones whose VH and VL sequences are disclosed in Tables 9 and 10 were bound to the AHQ sensor and his-tagged TSLPR (TSLPR-HIS) was provided in solution. […] The anti-TSLPR antibodies were serially diluted with an HBS-EP solution (GE Healthcare), and 100 μL of the solution was added to the flow path at a flow rate of […].
With B1 the Kd was 3.9 nM, the koff was 0.00137 s⁻¹ and the kon was 351000 M⁻¹ s⁻¹. For B2, the Kd was 5.91 nM, the koff was 0.0015 s⁻¹ and the kon was 254000 M⁻¹ s⁻¹. Binder B3 has a Kd of 1.01 nM, a koff of 0.000294 s⁻¹ and a kon of 292000 M⁻¹ s⁻¹. B4 gave a Kd of 6.81 nM, a koff of 0.00139 s⁻¹ and a kon of 204000 M⁻¹ s⁻¹. B5 showed a Kd of 1.28 nM, a koff of 0.00045 s⁻¹ and a kon of 351000 M⁻¹ s⁻¹. For B6, the Kd was 7.63 nM, the koff was 0.0014 s⁻¹ and the kon was 184000 M⁻¹ s⁻¹. With B7 the Kd was 1.16 nM, the koff was 0.000134 s⁻¹ and the kon was 116000 M⁻¹ s⁻¹. For B8, the Kd was 0.806 nM, the koff was 0.000191 s⁻¹ and the kon was 237000 M⁻¹ s⁻¹. Work on B9 yielded a Kd of 8.07 nM, a koff of 0.00324 s⁻¹ and a kon of 401000 M⁻¹ s⁻¹. With B10 the Kd was 2.33 nM, the koff was 0.00127 s⁻¹ and the kon was 545000 M⁻¹ s⁻¹. In the case of B11, the Kd is reported as 5.29 nM, the koff is reported as 0.000881 s⁻¹ and the kon is reported as 167000 M⁻¹ s⁻¹. With B12 the Kd was 8.9 nM, the koff was 0.00119 s⁻¹ and the kon was 133000 M⁻¹ s⁻¹. B13 gave a Kd of 11.7 nM, a koff of 0.0021 s⁻¹ and a kon of 179000 M⁻¹ s⁻¹. B14 was tested, and the Kd was 4.86 nM, the koff was 0.000334 s⁻¹ and the kon was 68800 M⁻¹ s⁻¹. With B15 the Kd was under 0.001 nM, the koff was under 1e-07 s⁻¹ and the kon was 16200 M⁻¹ s⁻¹. With B16 the Kd was 4.33 nM, the koff was 0.000332 s⁻¹ and the kon was 76800 M⁻¹ s⁻¹. B17 was tested, and the Kd was 3.07 nM, the koff was 0.000326 s⁻¹ and the kon was 106000 M⁻¹ s⁻¹.

What follows are binders tested against T1, his-tagged TSLPR (TSLPR-HIS) (assay: BLI (ForteBio AHQ sensor), antibody captured, TSLPR-HIS and TSLP in solution; competitor TSLP).
Method: as §1
For B2, the “TSLPR-TSLP Response” value was 32.2%. In the case of B18, the “TSLPR-TSLP Response” value is reported as 80%. For B5, the “TSLPR-TSLP Response” value was 120%. In the case of B6, the “TSLPR-TSLP Response” value is reported as 82.6%. In the case of B9, the “TSLPR-TSLP Response” value is reported as 21.2%. B11 was tested, and the “TSLPR-TSLP Response” value was 83.2%. In the case of B16, the “TSLPR-TSLP Response” value is reported as 204%. For B17, the “TSLPR-TSLP Response” value was -3.7%.

Reference: patent US20240360233A1 (University of Texas, published 2024)
